# Measurements taken from patent publication US12344663B2, “Anti-C3 antibodies and antigen-binding fragments thereof and their uses for treating eye or ocular diseases” (CDR-Life AG, priority 2021, dated 2025).
# B1: Clone I: humanized anti-C3 scFv, VH SEQ ID NO: 20, VL SEQ ID NO: 21; scFv SEQ ID NO: 26 or 27 (antibody, V domains shown)
# VH: QVQLVESGGGSVQPGRSLRLSCAASGFTFSNYAMNWVRQAPGKGLEWVAVISYDGSNKYYADSVKGRFTISRDNSKNTLYLQMNSLRAEDTASYYCARAVGYHHARLDPWGCGTSVTVSS
# VL: QLVLTQSPSASASLGASVKLTCTLSSAHKTYTIDWYQQQPEKCPRYLMQLKSDGSYTKGSGIPDRFSGSSSGAERYLTISSLQSEDEADYYCGTEGVGGYVFGGGTKLTVLG
# modifications: VH; VL
# Experiment: In vitro BrM permeation assay, Ussing chamber
# Type: in vitro ADME, porcine
# Settings: 0.1 mg/ml, up to 72 h, in words
# Procedure: Porcine Bruch's membrane samples are used for this measurement. Porcine eyes are collected from the slaughterhouse) no more than 6 hours after the animals were sacrificed and stored at 4° C. until use (on same day).
# Preparation of enriched Bruch's Membrane (BrM): The eyes are placed into a disposable petri-dish and any residual tissue surrounding the eyeball is removed. The eyeball is incised next to the iris with a scalpel and the front part of the eye as well as lens, vitreous and retinal tissue are removed from the eyecup. […]
# Sampling and membrane integrity analysis: For sampling at different timepoints (4 h, 24 h, 48 h and 72 h) the solution in the single compartments is mixed by carefully pipetting up and down and 90 μl were transferred separately from each sample and diffusate chamber to collection tubes. […] Accumulation of blue particles in the second compartment is observed and camera pictures are recorded to control for overall membrane integrity.
# Sample analysis: 15 μl of each solution from the sample and diffusate chambers are effectively loaded on 2 precast polyacrylamide gels (NuPAGE Bis-Tris gels) together with a similar amount of stored mastermix as loading control. The first gel is analyzed by standard SDS-PAGE and Coomassie-based staining methods for protein detection (anti-C3 scFv). […]
# Evaluation: Pictures of the SDS-gels are analyzed using ImageJ2 software (Fiji). […]
molecule,measurement,value
B1,Diffusion/penetration through porcine Bruch's membrane,superior diffusion ability
